These results are taken from patent US10780117.

This data set concerns the target Myc-tagged CRT expressed in J774 cells.

Chain of Myc-tagged CRT expressed in J774 cells (P27797 18-417): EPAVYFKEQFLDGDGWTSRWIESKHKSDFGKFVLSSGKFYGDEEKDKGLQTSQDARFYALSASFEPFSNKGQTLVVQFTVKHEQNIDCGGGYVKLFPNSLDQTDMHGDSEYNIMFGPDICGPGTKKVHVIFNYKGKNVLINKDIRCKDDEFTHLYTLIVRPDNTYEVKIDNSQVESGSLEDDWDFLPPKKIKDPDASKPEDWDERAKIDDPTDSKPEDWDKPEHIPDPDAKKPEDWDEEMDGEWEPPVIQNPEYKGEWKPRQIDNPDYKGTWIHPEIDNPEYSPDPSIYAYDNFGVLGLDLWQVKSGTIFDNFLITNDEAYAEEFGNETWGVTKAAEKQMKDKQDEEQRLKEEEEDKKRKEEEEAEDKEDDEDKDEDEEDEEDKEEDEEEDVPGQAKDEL

B1: Bruton's tyrosine kinase (Btk) in J774 mouse macrophage cells (protein)
chain: AAVILESIFLKRSQQKKKTSPLNFKKRLFLLTVHKLSYYEYDFERGRRGSKKGSIDVEKITCVETVIPEKNPPPERQIPRRGEESSEMEQISIIERFPYPFQVVYDEGPLYVFSPTEELRKRWIHQLKNVIRYNSDLVQKYHPCFWIDGQYLCCSQTAKNAMGCQILENRNGSLKPGSSHRKTKKPLPPTPEEDQILKKPLPPEPTAAPISTTELKKVVALYDYMPMNANDLQLRKGEEYFILEESNLPWWRARDKNGQEGYIPSNYITEAEDSIEMYEWYSKHMTRSQAEQLLKQEGKEGGFIVRDSSKAGKYTVSVFAKSTGEPQGVIRHYVVCSTPQSQYYLAEKHLFSTIPELINYHQHNSAGLISRLKYPVSKQNKNAPSTAGLGYGSWEIDPKDLTFLKELGTGQFGVVKYGKWRGQYDVAIKMIREGSMSEDEFIEEAKVMMNLSHEKLVQLYGVCTKQRPIFIITEYMANGCLLNYLREMRHRFQTQQLLEMCKDVCEAMEYLESKQFLHRDLAARNCLVNDQGVVKVSDFGLSRYVLDDEYTSSVGSKFPVRWSPPEVLMYSKFSSKSDIWAFGVLMWEIYSLGKMPYERFTNSETAEHIAQGLRLYRPHLASERVYTIMYSCWHEKADERPSFKILLSNILDVMDEES
Consider B1, for which the “tyrosine phosphorylation of immunoprecipitated myc-CRT (immunoblot with anti-phosphotyrosine antibody)” value is given as “Immunoblot showing CRT phosphorylation upon Btk activation”.
